Test results from patent publication US20230050148A1 (SCHOLAR ROCK, published 2023).

T1: Cyno (cynomolgus monkey)
T1 chain: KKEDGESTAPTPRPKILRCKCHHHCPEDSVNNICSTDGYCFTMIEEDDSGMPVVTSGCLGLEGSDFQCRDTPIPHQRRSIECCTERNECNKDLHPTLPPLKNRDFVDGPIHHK


Tests used:
[1] = target: hLTBP1-proTGFβ1 in the cell-based potency assay (human, UniProt P01137 30-390; Q14766 347-1721); assay: cell-based or functional assay
[2] = target: hLTBP3-proTGFβ1 in the cell-based potency assay (human, UniProt P01137 30-390; Q9NS15 44-1303); assay: cell-based or functional assay
Chain of hLTBP3-proTGFβ1 in the cell-based potency assay (P01137 30-390 limits assumed, chain 1 of 2): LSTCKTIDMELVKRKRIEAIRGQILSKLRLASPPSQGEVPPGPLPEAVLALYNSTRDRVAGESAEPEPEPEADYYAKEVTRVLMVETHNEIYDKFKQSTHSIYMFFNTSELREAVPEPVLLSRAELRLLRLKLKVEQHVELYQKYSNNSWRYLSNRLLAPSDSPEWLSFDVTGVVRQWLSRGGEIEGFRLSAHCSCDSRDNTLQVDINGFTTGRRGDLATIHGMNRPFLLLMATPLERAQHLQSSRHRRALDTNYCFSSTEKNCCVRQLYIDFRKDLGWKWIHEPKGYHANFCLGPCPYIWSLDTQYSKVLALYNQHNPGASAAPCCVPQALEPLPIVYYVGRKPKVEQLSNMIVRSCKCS
Chain of hLTBP3-proTGFβ1 in the cell-based potency assay (Q9NS15 44-1303 limits assumed, chain 2 of 2): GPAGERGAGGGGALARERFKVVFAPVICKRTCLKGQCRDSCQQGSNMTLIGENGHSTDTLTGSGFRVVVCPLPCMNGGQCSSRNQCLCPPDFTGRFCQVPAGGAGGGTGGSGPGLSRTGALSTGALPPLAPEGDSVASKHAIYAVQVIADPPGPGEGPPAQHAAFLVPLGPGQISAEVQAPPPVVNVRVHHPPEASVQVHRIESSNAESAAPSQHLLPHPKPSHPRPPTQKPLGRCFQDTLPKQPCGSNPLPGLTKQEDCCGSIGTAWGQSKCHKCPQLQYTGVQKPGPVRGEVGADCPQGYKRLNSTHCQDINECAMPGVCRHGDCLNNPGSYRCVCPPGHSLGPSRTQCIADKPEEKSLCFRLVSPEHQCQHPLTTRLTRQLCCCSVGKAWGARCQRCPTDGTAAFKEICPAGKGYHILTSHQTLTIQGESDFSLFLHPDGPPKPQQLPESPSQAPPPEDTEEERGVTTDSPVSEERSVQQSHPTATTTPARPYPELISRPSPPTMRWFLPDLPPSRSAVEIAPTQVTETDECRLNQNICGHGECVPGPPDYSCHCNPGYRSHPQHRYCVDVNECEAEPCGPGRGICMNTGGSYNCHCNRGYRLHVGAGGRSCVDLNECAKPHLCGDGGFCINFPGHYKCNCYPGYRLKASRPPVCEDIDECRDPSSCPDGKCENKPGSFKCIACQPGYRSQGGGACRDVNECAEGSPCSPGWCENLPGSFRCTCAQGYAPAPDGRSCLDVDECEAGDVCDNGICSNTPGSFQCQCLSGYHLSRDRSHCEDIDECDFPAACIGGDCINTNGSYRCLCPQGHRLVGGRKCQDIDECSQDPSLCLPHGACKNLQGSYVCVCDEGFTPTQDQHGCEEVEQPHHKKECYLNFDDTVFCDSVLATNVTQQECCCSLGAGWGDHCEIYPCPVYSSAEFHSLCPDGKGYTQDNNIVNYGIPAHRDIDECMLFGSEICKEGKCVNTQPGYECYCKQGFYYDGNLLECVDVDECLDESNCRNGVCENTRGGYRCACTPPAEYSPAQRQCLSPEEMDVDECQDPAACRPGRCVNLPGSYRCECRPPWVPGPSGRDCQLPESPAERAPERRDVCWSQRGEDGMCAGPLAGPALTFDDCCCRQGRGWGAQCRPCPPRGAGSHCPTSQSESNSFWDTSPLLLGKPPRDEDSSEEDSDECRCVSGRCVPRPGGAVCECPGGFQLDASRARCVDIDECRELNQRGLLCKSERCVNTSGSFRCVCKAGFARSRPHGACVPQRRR

[3] = target: hGARP-proTGFβ1 in the cell-based potency assay (human, UniProt P01137 30-390; Q14392 20-662); assay: cell-based or functional assay
Chain of hGARP-proTGFβ1 in the cell-based potency assay (P01137 30-390 limits assumed, chain 1 of 2): as the sequence (P01137 30-390 limits assumed, chain 1 of 2) above
Chain of hGARP-proTGFβ1 in the cell-based potency assay (Q14392 20-662 limits assumed, chain 2 of 2): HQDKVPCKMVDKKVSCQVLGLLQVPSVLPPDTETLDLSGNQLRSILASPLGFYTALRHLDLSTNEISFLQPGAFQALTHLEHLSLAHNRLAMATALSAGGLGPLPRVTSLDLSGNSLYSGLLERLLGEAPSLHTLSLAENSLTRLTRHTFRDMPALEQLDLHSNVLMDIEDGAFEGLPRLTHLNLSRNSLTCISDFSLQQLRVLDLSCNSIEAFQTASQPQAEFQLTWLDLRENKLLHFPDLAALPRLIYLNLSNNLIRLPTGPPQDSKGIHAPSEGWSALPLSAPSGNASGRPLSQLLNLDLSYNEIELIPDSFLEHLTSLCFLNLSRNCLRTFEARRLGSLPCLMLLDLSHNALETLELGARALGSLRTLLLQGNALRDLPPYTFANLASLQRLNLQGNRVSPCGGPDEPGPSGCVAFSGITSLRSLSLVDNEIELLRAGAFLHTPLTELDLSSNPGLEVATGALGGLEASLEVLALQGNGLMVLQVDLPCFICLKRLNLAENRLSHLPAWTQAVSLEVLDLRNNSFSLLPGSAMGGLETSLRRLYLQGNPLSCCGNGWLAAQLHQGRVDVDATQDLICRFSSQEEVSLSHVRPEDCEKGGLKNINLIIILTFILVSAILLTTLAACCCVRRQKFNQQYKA

[4] = target: hLRRC33-proTGFβ1 in the cell-based potency assay (human, UniProt P01137 30-390; Q86YC3 19-651); assay: cell-based or functional assay
[5] = target: LTBP:proTGFβ1 (human); assay: cell-based or functional assay
[6] = target: Human (human); assay: cell-based or functional assay
[7] = target: Rat (rat); assay: cell-based or functional assay
Chain of Rat (rat) (P17246 30-390): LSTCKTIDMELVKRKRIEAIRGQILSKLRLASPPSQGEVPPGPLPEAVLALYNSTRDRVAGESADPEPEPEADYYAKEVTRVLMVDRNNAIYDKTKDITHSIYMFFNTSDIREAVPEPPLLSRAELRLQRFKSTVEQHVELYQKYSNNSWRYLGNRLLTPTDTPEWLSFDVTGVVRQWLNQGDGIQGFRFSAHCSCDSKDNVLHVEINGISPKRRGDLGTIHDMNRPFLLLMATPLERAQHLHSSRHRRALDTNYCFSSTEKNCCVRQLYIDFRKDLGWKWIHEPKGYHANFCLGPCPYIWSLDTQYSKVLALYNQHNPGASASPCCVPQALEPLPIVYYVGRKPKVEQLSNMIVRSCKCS

[8] = target: T1, Cyno; assay: cell-based or functional assay
[9] = target: T2, recombinant human LTBP1-proTGFβ1 complex (human, UniProt Q14766 873-1507); assay: SPR (Biacore 8K), biotinylated antigen on Biotin CAP chip, Fab 0.62-10 nM, 1:1 fit
T2 construct: range 873-1507; Purified large latent complex (proTGFβ1 dimer disulfide-linked to one presenting molecule); biotinylated in BLI, MSD-SET and SPR assays; also called hLTBP1-proTGFβ1; hLTBP1
T2 sequence (chain, as listed by the source limits assumed, chain 1 of 2): as the sequence (P01137 30-390 limits assumed, chain 1 of 2) above
T2 sequence (Q14766 873-1507 limits assumed, chain 2 of 2): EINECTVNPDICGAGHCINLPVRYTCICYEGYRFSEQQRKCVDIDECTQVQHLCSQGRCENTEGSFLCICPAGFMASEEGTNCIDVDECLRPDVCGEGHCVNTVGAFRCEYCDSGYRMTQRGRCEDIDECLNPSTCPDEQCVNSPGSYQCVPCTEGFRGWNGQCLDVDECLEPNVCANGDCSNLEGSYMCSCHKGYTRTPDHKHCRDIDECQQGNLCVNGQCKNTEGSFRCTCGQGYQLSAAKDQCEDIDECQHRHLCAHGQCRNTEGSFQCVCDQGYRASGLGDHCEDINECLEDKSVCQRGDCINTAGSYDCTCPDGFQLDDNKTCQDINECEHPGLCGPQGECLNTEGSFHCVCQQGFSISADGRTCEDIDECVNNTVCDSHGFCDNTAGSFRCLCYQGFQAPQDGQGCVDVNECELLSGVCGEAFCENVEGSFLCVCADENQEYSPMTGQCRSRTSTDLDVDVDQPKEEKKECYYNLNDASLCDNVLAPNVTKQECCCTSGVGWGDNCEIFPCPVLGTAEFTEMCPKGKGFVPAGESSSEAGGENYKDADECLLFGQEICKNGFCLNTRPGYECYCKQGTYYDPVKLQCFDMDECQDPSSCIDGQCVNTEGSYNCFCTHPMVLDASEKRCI

[10] = target: T3, recombinant human LTBP3-proTGFβ1 complex (human, UniProt Q9NS15 866-1039); assay: as above
T3 construct: range 866-1039; Purified large latent complex; also called hLTBP3-proTGFβ1; hLTBP3

[11] = target: T4, recombinant human GARP-proTGFβ1 complex (human, UniProt P01137 30-390; Q14392 20-627); assay: as above
T4 construct: C-terminally His-tagged GARP ectodomain (sGARP) in complex with latent TGFβ1; also called hGARP-proTGFβ1; hGARP

[12] = target: T5, recombinant human LRRC33-proTGFβ1 complex (human, UniProt P01137 30-390; Q86YC3 19-650); assay: as above
T5 construct: C-terminally His-tagged LRRC33 ectodomain (sLRRC33); also called hLRRC33-proTGFβ1; hLRRC33
T5 sequence (P01137 30-390 limits assumed, chain 1 of 2): as the sequence (P01137 30-390 limits assumed, chain 1 of 2) above
T5 sequence (Q86YC3 other isoform, or with tags, fused parts or gaps limits assumed, chain 2 of 2): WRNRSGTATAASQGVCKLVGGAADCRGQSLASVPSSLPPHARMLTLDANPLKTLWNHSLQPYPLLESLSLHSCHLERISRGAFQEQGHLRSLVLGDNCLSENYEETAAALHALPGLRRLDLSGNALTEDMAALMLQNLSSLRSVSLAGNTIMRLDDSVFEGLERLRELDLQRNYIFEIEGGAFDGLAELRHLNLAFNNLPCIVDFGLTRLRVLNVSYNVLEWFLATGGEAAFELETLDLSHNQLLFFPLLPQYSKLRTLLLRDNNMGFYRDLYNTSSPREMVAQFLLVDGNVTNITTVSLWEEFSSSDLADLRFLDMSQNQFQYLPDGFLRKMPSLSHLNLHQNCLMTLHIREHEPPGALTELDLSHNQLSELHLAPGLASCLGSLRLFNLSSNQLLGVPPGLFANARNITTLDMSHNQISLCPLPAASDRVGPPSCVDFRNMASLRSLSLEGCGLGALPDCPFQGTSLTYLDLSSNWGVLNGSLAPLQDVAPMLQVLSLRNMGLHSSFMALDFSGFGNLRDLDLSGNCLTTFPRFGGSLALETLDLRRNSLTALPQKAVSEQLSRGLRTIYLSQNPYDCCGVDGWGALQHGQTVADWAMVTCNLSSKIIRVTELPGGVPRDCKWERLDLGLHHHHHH

| Binder | IC50, reporter cell assay of TGFβ1 activation [1] [nM] | IC50, reporter cell assay of TGFβ1 activation [2] [nM] | IC50, reporter cell assay of TGFβ1 activation [3] [nM] | IC50, reporter cell assay of TGFβ1 activation [4] [nM] | further results |
| --- | --- | --- | --- | --- | --- |
| Ab4 (antibody, V domains shown) VH: EVQLVESGGGLVQPGGSLRLSCAASGFTFSSYSMNWVRQAPGKGLEWVSYISSSSSTIYYADSVKGRFTISRDNAKNSLYLQMNSLRAEDTAVYYCARGVLDYGDMLDPWGQGTLVTVSS VL: DIQMTQSPSSLSASVGDRVTITCQASQDITNYLNWYQQKPGKAPKLLIYDASNLETGVPSRFSGSGSGTDFTFTISSLQPEDIATYYCQQADNHPPWTFGGGTKVEIK | 5.2 | 5.6 | 0.8 |  |  |
| Ab5 (antibody, V domains shown) VH: EVQLVESGGGLVQPGGSLRLSCAASGFTFSSFSMDWVRQAPGKGLEWVSYISPDASTIYYADSVKGRFTISRDNAKNSLYLQMNSLRAEDTAVYYCARGVLDYGDMLDPWGQGTLVTVSS VL: DIQMTQSPSSLSASVGDRVTITCQASQDITNYLNWYQQKPGKAPKLLIYDASNLETGVPSRFSGSGSGTDFTFTISSLQPEDIATYYCQQADNHPPWTFGGGTKVEIK | 1.3 |  | 0.1 | 0.6 |  |
| Ab6 (antibody, V domains shown) VH: EVQLVESGGGLVQPGGSLRLSCTASGFTFSSFSMDWVRQAPGKGLEWVSYISPSADTIYYADSVKGRFTISRDNAKNTLYLQMNSLRAEDTAVYYCARGVLDYGDMLMPWGQGTLVTVSS VL: DIQMTQSPSSLSASVGDRVTITCQASQDITNYLNWYQQKPGKAPKLLIYDASNLETGVPSRFSGSGSGTDFTFTISSLQPEDIATYYCQQADNHPPWTFGGGTKVEIKR |  |  |  |  | IC50 (read off the curve); percent TGFβ activity, LN229 / CAGA12 luciferase reporter co-culture [5]: ~1 nM; IC50 (inhibition of latent TGFβ1 activation, LN229 transfectants with CAGA12 reporter cells) [6]: 1.07 nM; IC50 (inhibition of latent TGFβ1 activation, LN229 transfectants with CAGA12 reporter cells) [7]: 1.11 nM; IC50 (inhibition of latent TGFβ1 activation, LN229 transfectants with CAGA12 reporter cells) [8]: 1.02 nM |
| Ab21 (antibody, V domains shown) VH: EVQLVESGGGLVQPGGSLRLSCAASGFTFSSFSMDWVRQAPGKGLEWVSYISPDASTIYYADSVKGRFTISRDNAKNSLYLQMNSLRAEDTAVYYCARGVLDYGDMLDPWGQGTLVTVSS VL: DIQMTQSPSSLSASVGDRVTITCQASQDITNYLNWYQQKPGKAPKLLIYDASNLETGVPSRFSGSGSGTDFTFTISSLQPEDIATYYCQQADNHPPWTFGGGTKVEIK | 1.6 | 0.8 | 0.4 | 0.6 |  |
| Ab26 (antibody, V domains shown) VH: EVQLVESGGGLVQPGGSLRLSCAASGFTFSSFSMDWVRQAPGKGLEWVSYISPDASTIYYADSVKGRFTISRDNAKNTLYLQMNSLRAEDTAVYYCARGVLDYGDMLDPWGQGTLVTVSS VL: DIQMTQSPSSLSASVGDRVTITCQASQDITNYLNWYQQKPGKAPKLLIYDASNLETGVPSRFSGSGSGTDFTFTISSLQPEDIATYYCQQADNHPPWTFGGGTKVEIK | 0.7 | 0.7 | 0.3 | 0.3 |  |
| Ab25 (antibody, V domains shown) VH: EVQLVESGGGLVQPGGSLRLSCAASGFTFGSFSMDWVRQAPGKGLEWVSYISPDASTIYYADSVKGRFTISRDNAKNSLYLQMNSLRAEDTAVYYCARGVLDYGDMLDPWGQGTLVTVSS VL: DIQMTQSPSSLSASVGDRVTITCQASQDITNYLNWYQQKPGKAPKLLIYDASNLETGVPSRFSGSGSGTDFTFTISSLQPEDIATYYCQQADNHPPWTFGGGTKVEIK | 6.1 | 0.51 | 0.4 | 0.7 |  |
| Ab23 (antibody, V domains shown) VH: EVQLVESGGGLVQPGGSLRLSCAASGFTFSSFSMNWVRQAPGKGLEWVSYISPSADTIYYADSVKGRFTISRDNAKNTLYLQMNSLRAEDTAVYYCARGVLDYGDMLDPWGQGTLVTVSS VL: DIQMTQSPSSLSASVGDRVTITCQASQDITNYLNWYQQKPGKAPKLLIYDASNLETGVPSRFSGSGSGTDFTFTISSLQPEDIATYYCQQADNHPPWTFGGGTKVEIK | 0.8 | 0.9 | 0.3 | 0.6 |  |
| Ab29 (antibody, V domains shown) VH: EVQLVESGGGLVQPGRSLRLSCAASGFTFSSFAMNWVRQAPGKGLEWVSYISPDASTIYYAGSVKGRFTISRDNAKNSLYLQMNSLRAEDTAVYYCVRAVLDYGDMLDPWGQGTLVTVSS VL: DIQMTQSPSSLSASVGDRVTITCQASQDITNYLNWYQQKPGKAPKLLIYDASNLETGVPSRFSGSGSGTDFTFTISSLQPEDIATYYCQQADNHPPWTFGGGTKVEIK | 0.5 | 0.8 | 0.3 | 0.5 |  |
| Ab6 Fab (Fab, V domains shown, also called Fab fragment of Ab6) VH: EVQLVESGGGLVQPGGSLRLSCTASGFTFSSFSMDWVRQAPGKGLEWVSYISPSADTIYYADSVKGRFTISRDNAKNTLYLQMNSLRAEDTAVYYCARGVLDYGDMLMPWGQGTLVTVSS VL: DIQMTQSPSSLSASVGDRVTITCQASQDITNYLNWYQQKPGKAPKLLIYDASNLETGVPSRFSGSGSGTDFTFTISSLQPEDIATYYCQQADNHPPWTFGGGTKVEIK |  |  |  |  | Kd [9]: 0.124 nM; koff [9]: 0.000255 s⁻¹; kon [9]: 2.05e+06 M⁻¹ s⁻¹; Kd [10]: 0.488 nM; koff [10]: 0.000831 s⁻¹; kon [10]: 1.7e+06 M⁻¹ s⁻¹; Kd [11]: 0.104 nM; koff [11]: 0.000218 s⁻¹; kon [11]: 2.1e+06 M⁻¹ s⁻¹; Kd [12]: 0.145 nM; koff [12]: 0.000123 s⁻¹; kon [12]: 845000 M⁻¹ s⁻¹ |
| Ab33 (antibody, V domains shown) VH: EVQLVESGGGLVQPGGSLRLSCAASGFTFSSFSMNWVRQAPGKGLEWVSYISPSADTIYYADSVKGRFTISRDNAKNTLYLQMNSLRAEDTAVYYCAHGVLDYGDMLDPWGQGTLVTVSS VL: DIQMTQSPSSLSASVGDRVTITCQASQDITNYLNWYQQKPGKAPKLLIYDASNLETGVPSRFSGSGSGTDFTFTISSLQPEDIATYYCQQADNHPPWTFGGGTKVEIK | 1.6 | 1.1 | 0.2 | 0.7 |  |
